Experimental data taken from patent US20070004634A1 (published 2007).

Key:
[1] = molecular target: T1, human insulin receptor (HIR) (human, UniProt P06213-2 28-1370, limits assumed); assay: 125I-insulin competition, solubilized HIR
T1 construct: detergent-solubilized receptor

[2] = molecular target: soluble human insulin mini-receptor (mIR) (human, UniProt P06213-2 28-746, limits assumed); assay: FP vs FITC-RP9 on mIR

T1 sequence (P06213 other isoform, or with tags, fused parts or gaps limits assumed): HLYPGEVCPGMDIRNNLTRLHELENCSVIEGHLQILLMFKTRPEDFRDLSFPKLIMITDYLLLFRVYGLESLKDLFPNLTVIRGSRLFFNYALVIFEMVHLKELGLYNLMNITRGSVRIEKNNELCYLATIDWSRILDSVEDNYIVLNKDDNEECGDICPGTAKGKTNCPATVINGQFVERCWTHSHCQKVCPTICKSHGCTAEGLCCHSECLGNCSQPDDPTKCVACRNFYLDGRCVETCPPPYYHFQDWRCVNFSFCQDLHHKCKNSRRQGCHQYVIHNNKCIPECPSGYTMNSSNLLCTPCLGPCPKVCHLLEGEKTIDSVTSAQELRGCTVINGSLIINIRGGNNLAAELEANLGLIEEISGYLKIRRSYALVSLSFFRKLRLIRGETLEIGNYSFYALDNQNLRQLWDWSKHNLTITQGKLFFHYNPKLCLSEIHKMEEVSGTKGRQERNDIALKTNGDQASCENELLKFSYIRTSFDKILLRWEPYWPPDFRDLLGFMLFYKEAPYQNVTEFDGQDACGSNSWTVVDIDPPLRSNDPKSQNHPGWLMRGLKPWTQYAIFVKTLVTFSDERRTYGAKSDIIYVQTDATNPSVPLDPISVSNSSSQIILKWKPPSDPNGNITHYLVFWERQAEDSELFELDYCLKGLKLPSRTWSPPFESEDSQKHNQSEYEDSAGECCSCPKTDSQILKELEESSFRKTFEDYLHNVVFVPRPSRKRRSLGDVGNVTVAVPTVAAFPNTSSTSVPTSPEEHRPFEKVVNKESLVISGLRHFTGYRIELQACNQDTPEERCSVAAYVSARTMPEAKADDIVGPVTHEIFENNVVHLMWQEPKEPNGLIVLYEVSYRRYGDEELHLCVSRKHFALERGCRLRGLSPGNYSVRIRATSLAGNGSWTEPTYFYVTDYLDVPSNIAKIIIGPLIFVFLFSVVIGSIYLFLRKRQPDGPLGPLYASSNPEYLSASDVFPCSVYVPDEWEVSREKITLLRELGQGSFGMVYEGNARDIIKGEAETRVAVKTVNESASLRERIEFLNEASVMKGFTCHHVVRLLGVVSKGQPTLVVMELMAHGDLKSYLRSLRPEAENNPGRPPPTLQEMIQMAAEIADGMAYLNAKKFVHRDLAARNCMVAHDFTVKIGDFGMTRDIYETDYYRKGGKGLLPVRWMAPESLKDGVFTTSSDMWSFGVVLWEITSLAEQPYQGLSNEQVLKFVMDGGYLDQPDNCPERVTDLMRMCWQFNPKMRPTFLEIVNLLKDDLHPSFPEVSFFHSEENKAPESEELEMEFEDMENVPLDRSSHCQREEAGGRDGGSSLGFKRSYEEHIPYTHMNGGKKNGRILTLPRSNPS

Kd [1] [nM]	IC50 [2] [nM]	Binder
1400	–	RWPNFYGYFESLLTHFS [S257]
–	770	FHENFYDWFVRQVSKK [H2C]
